Experiment: label from the status in PepcDB records

Row | Sequence | protein production
1 | MRKARGIKLIAVFLVAAVVNVVFGFCVLAKAQILKKPAENSYVFDYANLIDSSDEEEMRALAKEIEDKSKAEIVVVTVETLGSYTIEEYANELFRSWEIGDKELNNGVLILVNKENLLLGKKGRIRIEVGYGLEGAITDGKAGRTLDEYAIPAFERNEYSKGIRDTFLAVASEVANEYGLKIDGLSGYGASEDVNENEVTSDGNAENVVDVPFGLGIGAGLIVGFGLFFFIIFLMVIVILYNQPYAGKKYEWTWKNGKWEKKVYVYRYDDLWKNNRSFFDDSDDSDSFGSGGGFGGFGGGSSGGGGASR | failed
2 | MRKCLLSVAMIVKDEEHNIRRALESIKDVVDEIVVVDTGSTDRTPEIVREYTDKLYFHEWKNDFSEARNFSLKFPTCEWVLILDADEEASEEFRQNIRSFLESLPEDVNTVYLPTVSYLDWDFKRTEIASTPRIFRNGTVYYKNIVHNQAVYKPKVVHAPFVIYHYGYIWTRKLKKNKYERTATLIREQLKTVKNPIEKIYYLIQLYKTEKTGGRKHEENRIAWETLQEIMKVGKIPPIGLEFLYIFGMELILNGFLEKGEELIDTAIRVFPENPDPYFAKLAIYERRKDWENLYQWGKKFLDVLNKALSQAEKYEFTITTIKEIGTAHLLMCHACIKLKKWNEAYEHLLKAIENNIDESKFTLTLQIVSEIDESENFQKVLKLVEKIAEHSENLFFDEIVEKIAEFEIEASEELLNKLPVSRKISKFILKRLVEKKDFLFEYLTGGDINSFVEKTGIPGLLFIFDLLKNRETEGRLIRILSKIEGDEKPNGIVQALIGDLYLKLGNFSEAISRYRKALELAPEIGNFIKPVIEDLKTRLDPDIEGVYEELYRYFSGYREFPFNILEFTKEDAEKLYLISDHPLAIYTSAVAVFPKSKEKARALLERIKDVSKLSFYYYRLAKTWEEENPSKAFELHIKAVEENENLGDIALGRYKYDGLYPNQTFPFMKKEDEIVWAGNITEKFSGLGVIHPVRAWKRKENLYYALPHPTDEALKLYKEREKEILKEPPFKVKEEHMIGVLLESDIRDLRIKGEASGLESILKDLEIELKEDSKNLLVVSGVEETLDLSKIAEDAERVLLFFFVPDLRDRNNSVWYYPAFRVLRTTHQMKKTLEDLRFSVVKVKALDKNLRFIEALRRL | failed
3 | MRKDDVVIVTCAITGAIHTPSMSPYLPVTPDQIVEEAVKAAEAGAGMVHIHARDPKDGRPTTDVEVFRYICREIKKQSDVVINVTTGGGGTLGIPVEERAKVVPALKPEIATFNMGSMNFAIHPLLKKYKEFKYDWEPEYLEMTRDIVFRNTFKDLEALSRIFKENDTKPELECYDIGQIYNTAFMFHEGYLEPPLRLQFIHGILGGIGTAVEDVLFMKQTADRLIGRENYTWSLVGAGRFQMPLGTLAVIMGGDVRVGLEDSLYIERGKLAKSNAEQVEKMVRIVKELGKRPATPDEVREILGLKGKERVNF | not failed
4 | MRKDTEEVQKSSGKTRKSYVKVKKKRRKSTKQKGPEPKKLDFVKDSWQKGSLEIKKLDFIGDRWQTVSLEPKMLGFVEDPWRKGSLEPKMLDFVEDPWQKGSLEPKMLDIVEDSWQKDSFEAMKLDFAEYNWISIDNRRVSADSKRSSVDSKRSSVDSKRSSVDSKRGSIDSRKFSVDSKRDPVDNKRDSVDSKRFSVDSKRFSVDSRRVSISSKRSSIDSKRSSVDSRKSSGGTLLDFSEDRRSSGEDRDISSLARVRHSRVPWATLMRALGRFKLYLPHIRRYYNLSSRDPLALDKDFLLPREKHLKATVQKSWGNQQPLSKIPYKTLTGHDQTVSSCHFCMDDTRLLSSSYDCTVKLWDAEDGTVICDFEPRPKAPVLECSITADNRRIVASSYDKTVRAWDVETGQLLWKVRHDTFVVCCKFSPNGKYVLSALDVNRGIYLMDPENITSVIHMKAQHQRSITSCCFDPDSQKVASVSMDKSIKIWDVTSRATLFTIQEAHTNAISDCCFTFSGHFLCTSSWDRTIKIWNVHTGEFRNQGACVTLMKGHEGCVSSCCIARDSSFLISGGFDKTVAIWDVGGGYRKLSLKGHEDWVTDVAISNDKKWILSASKDNSMRLWNIEEIDKIPLVSENKRAMGLKVRQCRNCDQLFSVLESDVYSQLSNTCLFCRREKKSLSSSSSSLSLSSLERLCI | failed
5 | MRKFTILLLLLWLPSFVSSLTEFDSVMDLRKQLIVLTGWLGFAYMGAAIVLSARFKWTERLVKGLDKAYGLHKKLGISAFIALLLHWLVIKAAHWAVQLGWLVRPTHAGKERVITGVDWISLAEKVGDISFKVFILFTIISLVERISYKKFKGIHKIGGALMLAGVFHTLFLIKWDLSLIPMNIAIILISAISVWCAILSLTGSIGKKNKIGGQVVLVDKFKDDSEFTVVARLQIKLESKLRYKEGQFAYINFHDGEAPHPFSILNYNEKTRLVEFGIKDLGDYTHQLVNQIAVGKKATVEGGYGYFQVPSDMNQVWVGAGIGIVPLLSRLYWLQKSTDKTTKRIEKIHLFYCVNNEKEAFFSTEIKAILRKMDFIELHLIESDKGYRLTSEYILNKIDNESFSVSFCGPEGFGMSLKQGLMANGLPEASFHKEIFKMR | failed
6 | MRKHSDCMNFCAVDATKGICRLSKQMINLDDAACPEIKVMPKCKNCKNFVEANDEGIGKCVGLEKEDWVYSTLNAITCEGHVFNE | failed
7 | MRKILVVGAGQSGLQLALGLQSHGYEVTLMSNRTADEIRSGRVMSTQCMFDTALGHERDLQLNFWESQAPKIEGLGVSVAAPGSFDPGPSQRAIDWVGKLDGYAQSVDQRVKMAGWMETFAQRGGQLVIHGAAVSDLDYFSRAYDLVLVSAGKGELVSMFGRDASRSPYSEPQRALAVAYVHGLGPRPEHPDYDAVRCNLVPGVGELFVMPTLTTSGRADILFWEGIPGGPLDVFKGVNDPGEHLSLTLELMERFTPWEYARATKVELTDGNGTLAGRYAPTVRNPVGRLPGGGLVLGVADVVVANDPITGQGSNSASKCAAAYLASIVEHGEKEFDETWMRATFDRYWDTAQHVTKWTNAMLGVPPEHVLNLIGAAGALQPVANRFANGFDNPADFENFFYEPEKTEAYLASVAGS | failed
8 | MRKKKDGQNLPDFRKNPPKLDKKAYEKELKRLQAELVDLQQWVVETGARVVIVMEGRDAAGKGSAIKRITQYLNPRSARIEALPTPNSREKGQWYFQRYIEKLPTAGEIVIFDRSWYNRAGVERVMGFCTSQEYRRFLHQAPIFERLLVEDGIHLRKYWFSVSDEEQIERFEDRLSDPLRRWKLSPMDLQSITRWEDYSRAKDEMFIHTDIPSAPWYTVESEDKKRSRINVISHLLSTIPYEKIDRPLPEIPHRPDSESDYVRPPRDEFRYVPDVAAHLEEERIKKEEKAKKAKKPAKAAGKNSDKQKSSGGKGKKKSKK | failed
9 | MRKKQKLPFDKLAIALMSTSILLNAQSDIKANTVTEDTPAAEQAVETPQPTAVSEEVPSSKETKTPQTPDNAEETVADKANDLALQAPAKTADTPATSKATIRDLNDPSQVKTLQEKAGKGAGTVVAVIDAGFDKNHEAWRLTDKTKARYQSKEDLEKAKKEHGITYGEWVNDKVAYYHDYSKDGKTAVDQEHGTHVSGILSGNAPSETKEPYRLEGAMPEAQLLLMRVEIVNGLADYARNYAQAIRDAVNLGAKVINMSFGNAALAYANLPDETKKAFDYAKSKGVSIVTSAGNDSSFGGKTRLPLADHPDYGVVGTPAAADSTLTVASYSPDKQLTETATVKTADQQDKEMPVLSTNRFEPNKAYDYAYANRGMKEDDFKDVKGKIALIERGDIDFKDKIANAKKAGAVGVLIYDNQDKGFPIELPNVDQMPAAFISRKDGLLLKENPQKTITFNATPKVLPTASGTKLSRFSSWGLTADGNIKPDIAAPGQDILSSVANNKYAKLSGTSMSAPLVAGIMGLLQKQYEIQYPDMTPSERLDLAKKVLMSSATALYDEDEKAYFSPRQQGAGAVDAKKASAATMYVTDKDNTSSKVHLNNVSDKFEVTVTVHNKSDKPQELYYQATVQTDKVDGKHFALAPKALYETSWQKITIPANSSKQVTVPIDASRFSKDLLAQMKNGYFLEGFVRFKQDPKKEELMSIPYIGFRGDFGNLSALEKPIYDSKDGSSYYHEANSDAKDQLDGDGLQFYALKNNFTALTTESNPWTIIKAVKEGVENIEDIESSEITETIFAGTFAKQDDDSHYYIHRHANGKPYAAISPNGDGNRDYVQFQGTFLRNAKNLVAEVLDKEGNVVWTSEVTEQVVKNYNNDLASTLGSTRFEKTRWDGKDKDGKVVANGTYTYRVRYTPISSGAKEQHTDFDVIVDNTTLEVATSATFSTEDRRLTLASKPKTSQPIYRERIAYTYMDEDLPTTEYISPNEDGTFTLPEEAETMEGATVPLKMSDFTYVVEDMAGNITYTPVTKLLEGHSNKPEQDGSDQAPDKKPEAKPEQDGSGQTPDKKPETKPEKDSSGQTPGKTPQKGQPSRTLEKRSSKRALATKASARDQLPTTNDKDTNRLHLLKLVMTTFFFGLVAHIFKTKRQKETKK | failed
10 | MRKSVSRASSIITGLLVMSIGLNSTEYLSIYKLILFNKKTCMKLKTHFVFSIGLLTLASSFFGFSLIISAIISVLGNTLIDRLGHKEISTRYGKIPVRTPLTHTLPRSVFWGLISSMPVIIVLGLAYGMLNTKILTALIDGILVGPSHMLLDVFTENGIYVKRNGKWKRVALAHFSYDSSLINGLAIVLGIIMIFAAMELHH | failed
11 | MRKTKTEALKTKEHLMLAALETFYRKGIARTSLNEIAQAAGVTRGALYWHFKNKEDLFDALFQRICDDIENCIAQDAEDAEGGSWAVFRHTLLHFFERLQSNDIYYKFHNILFLKCEHTEQNAAVIAIARKHQAIWREKITAVLTEAVENQDLADDLDKETAVIFIKSTLDGLIWRWFSSCERFDLGKTAPRIIGIMMDNLENHPDLRRK | not failed
12 | MRKVTAAVMASTLAFSFLSHAAEVVTSDNWHPGDGATQRSAQNHMFDGISLTEHQRQQMRDLMQQARHEQPPVNVSEMETMHRLVTAEKFDESAVRAQAEKMAQEQVARQVEMARVRNQMYRLLTPEQQAVLNEKHQQRMEQLRDVAQWQKSSSLKLLSSSNSRSQLEHHHHHH | failed
13 | MRLALFDLDNTLLGGDSDHAWGDYLYQRGILDAATYKSRNDEFYQDYLAGTLNMTDYLNFTLEILGNTDMAQLQEWHREFMRDCIEPIMLPKALELIAKHREAGDKLVVITATNRFVTAPIVARLGIETLLATECEMVDGRYTGRTTGVPCFREGKVTRLNQWLEDNAFSLEDSYFYSDSMNDLPLLEQVANPVAVDPDARLRAEAEQRGWPVITLRS | failed
14 | MRLDHLRLQNFRCYEDAHFDFQPGFNLVVGVNGSGKTSLLLGVAECLIPYGNAMGQGQEILSKEDVRFVIDRHEGRSRFERKFPVFIRADGDIFDLPNWRAVRLLEPWEGGVDPSSLSHLSAVLARNNAGEQIDFPVLAFYRANRRWSSARISAEFAAQQRTSRFDGYANWFDAVADLRDFESWLIARTLERLQDRLDSTPTVEREDELEWVNRAIRLAIPDAHDLRYDLRLQSLLVDMGEGNAVPFHELSDGQRSLIALIADIARRMCVLNPHIGKDVLANTGGIVIIDELDIHLHPAWQRNIAPTLKKAFPKVQFIATSHSPQVIGSLQPGEVILLKNGDSSHPRATYGLDSSTILEEVMGVPQREPEIEVLLDELFSTLENNELEKARLQLDALKKKAPDLPEFAGAEALLKRKELIGRLEHHHHHH | not failed

Reference: a protein production outcome set (Wang et al. 2014)
